In the supplement of paper PMC12636428:

system: Saccharomyces cerevisiae; test: transcriptional activation domain activity (GFP:mCherry ratio, weighted mean of sorted bins, harmonized to initial dataset scale) (arbitrary fluorescence ratio units); higher = stronger transcriptional activation; settings: beta-estradiol 1 µM; induction time 4 h
Outline: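 After a 1:5 dilution into SC with 1 uM beta-estradiol and 4 hours at 30 °C, yeast diploids carrying a GFP reporter and URA3-integrated barcoded tiles were sorted into 8 bins by GFP:mCherry ratio. The tiles were fused to an estradiol-inducible synthetic transcription factor. Barcodes were sequenced, tiles below 50 reads were discarded, and activation activity was taken as the read-weighted mean of bin median fluorescence, averaged across barcodes and linearly mapped onto the initial dataset scale.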

Point of comparison: “KFIWRSSWSLPKIMYLLIRYLGLVCLLYYAMNAVTVQKSIAVCQLYIISMHTV”, “transcriptional activation domain activity” value 67000. Against it:
- ILLSLFANHFPWDFRDALCLEFWVVAFRNLEMLEYFDGDLLLSEHGGTCTVSK — lower, 34800
- WPWTFWPWTFWIFWTFWTFGLFGLFGLFGLGLFGLFGLFGPLDFLDFLDLWTF — lower, 42000
- PNLLMPCPWRSMDLCIFFRLAVGFFFLFLFPLSLSLPPSPFFFLFFSTPVIMV — lower, 62500
- ESLKHHEGINMVWKKFQSIFRIIEGIVYYEPVYRAFVRHILHHLHLDNVLWVD — higher, 70300
- GGADTKQGAKIACLECRTAKIKCSAPTDGVVPCRRCVRHGRECIFEKHRRGRK — lower, 42200
- MRMLLYLLIHFIFMGVWTWLSWFSEVELLMVVLGLLETCFELTDMCGFCIFFV — higher, 69500
- RGREDNEDGGRNKRRGGGRFEGRRGRGDRDGNRRRDTRDSRREDKSTANGDAS — lower, < 6570
- LIGCCVVYSLLSSFLLIFQCIPVSLAWNRWDGEHHGHCTNLVPLTWITALLNV — lower, 58900
- DGYRNDNRGRNRRGNGRSRSPRGGKDSRNGTPPLTEDERDKRTIFVQQLAARL — lower, 57100
- LLHPDKREPIDEDIWTVIPRGIRCEMMTFDLHIWLRRLVECLYKCLLENLVPT — lower, 46600
- MKVDSYTDYLTGIFIHCGLYDTNHDPNYPALYYRCVLLDSTWLVGLLTCFLWL — lower, 65100
- LLAWGYVLFNPFAIYSLPYTVLFAFLSLSYLVLTFVLTLPSSLPFYHSKYWFQ — lower, 66900
- QLYCILNPPHLFVFPPKEISSVLFLVGVVHYVLYGLYYMLLLYNLFRFGLLTY — lower, 45700
- MSKRAAEGSDSAGSSKKVKQDDSASTVFQKDEEGNLYVDLSSMKRATVSVFRG — lower, 60400
- INCQVVYQLQGITGHMALNFASINFAIRTIYIWMHNVYVTSTLSLLILCQWVI — lower, 54700
- MRKNGSILSFRSFPPSPTFLPSFLLFFFSFPFFPVIFFQTPLLFLLLFFIYWG — lower, 42000
- MPFYMPSKGLAIKDFVGQIALIIKVYVNPITLVSISYHYYMFFLSLNCLWLFL — lower, 65100
- SHFLPLLLFLSLSFILFSFPFILPFSLISLFSYFFLPFLHISTLFHSYFSFLL — lower, 47400
- KEVKEGEEGEKPKRGRKRKEAPAENGEEKEEKEPAAKKAKPASKAAPGSKPAS — lower, 12700
- FFLFLFFPFSFSFLFFSFFHFLPMLAHCYNGVTISVSLWFPLILASLFRPFLL — lower, 64300
- SFCVRHKFMWPLFRTRFIPCPVVSLIVLPTLFIVAYLPQVAFLAIFQGNLAWF — lower, 58000
- MCFRILLSFLHVHPLFENALFYEISLICLLISWRSSTCSMHLLFIFIFILFFC — lower, 42200
- MAPCIPVMYLSVSSTSFLFLSFFILGWWILFSFTIFPATNSFLCFWAPFFFSH — lower, 46100
- WCVVLCMVLILPRLFYTILQMNDYNISPFNPNVNALYTSLLGYLPLLAVFIVM — lower, 53800
- IIDKLGSLTFVYARRNPITIGTFAATETAILEHYGAGNIWKYILWHWVICFYS — lower, 44400
- KIMSFIIGLGLICPLVLVRDKLTILLTLCYEGLLVGFWFIDHAQALRWYCLFI — higher, 68700
- ICISILLIPGDLVTVFSRIGRSEAANIAFSIVLMPSMWSGYFWISLCYLSFWT — lower, 52700
- SATIFSPFDTHLLEPVPSSSSESSAEVMFHGKQMKNFLIDINSFTNQQQQAQD — lower, 38700
- QQAHHNVSGPTSKTLLPFLPLHKLMLSNILSPNVRLLFPPLLPLQLSWILWAL — lower, 61800
- HLSLSPSLIPTLSFFLLLLYPLVFFIFIIYRGPLFFLFDLTHLICFIYILFIL — lower, 27400
- GHERERGSGREKRGGERDATGRRERDRESGRESRESRESSRRERGSRDEGRRD — lower, 39800
- FTRHLSKEEIDVVVDCVWRASKLRNCTRVTVMECCVRTAPWFNSDGVICAYIM — lower, 49700
- HFAGLVILGVFLMFINAIVLWPILKSFHDCKHLIKVWFFWMIYCLLFVLYIFC — higher, 72600
